According to US20250262297A1, “ALLERGY ANTIGEN AND EPITOPE THEREOF” (HOYU CO., LTD., priority 2017, published 2025):

System: IgE antibodies from soybean-allergic patients
Experiment: Immunoblotting of two-dimensional electrophoresis pattern of soybean proteins with patient serum
Type: binding, human
Conditions: spot in 2D electrophoresis gel of soybean proteins; patient serum compared with healthy subject serum
Description: Transfer to membrane was done using the following transfer system and transfer buffer. • Transfer system: XCell SureLock Mini-Cell and XCell II Blot Module (produced by Life Technologies) • Transfer buffer: NuPAGE Transfer Buffer (X20) (produced by Life Technologies), used in a form diluted 20-fold with milliQ water.
To be specific, proteins in the two-dimensional electrophoresis gels were transferred to a membrane (PVDF membrane) according to the following procedure. • (1) The PVDF membrane was immersed in 100% methanol followed by milliQ water, and then moved into the transfer buffer to hydrophilize the PVDF membrane. • (2) After sponge, filter paper, the gels treated by second-dimensional SDS-PAGE, the hydrophilized PVDF membrane, filter paper, and sponge were put in place in this order, the transfer system was energized at a constant voltage of 30 V for one hour.
Immunoblotting of the membrane was carried out using, as a primary antibody, a serum sample from a patient with a soybean allergy or a serum sample from a healthy subject.
Immunoblotting of the membrane was carried out according to the following procedure. • (1) The transferred membrane was shaken in a 5% skim milk/PBST solution (a PBS buffer containing 0.3% Tween 20 nonionic surfactant) at room temperature for one hour. • (2) The membrane was left to stand in a solution of 3% primary antibody serum in 5% skim milk/PBST at room temperature for one hour. • (3) The membrane was washed with a PBST solution (5 min.×3 times). • (4) The membrane was left to stand in a 1:2500 dilution of the secondary antibody, anti-human IgE-HRP (horseradish peroxidase), with a 3% skim milk/PBST solution at room temperature for one hour. • (5) The membrane was washed with a PBST solution (5 min.×3 times). • (6) The membrane was left to stand in Pierce Western Blotting Substrate Plus (produced by Thermo Fisher Scientific) for 5 minutes.
The membrane obtained through the foregoing series of treatments was subjected to fluorescent image scanning on Typhoon 9400 (produced by GE).
The immunoblots obtained with the serum from the soybean-allergic patient were compared with those obtained with the control serum from the healthy subject.

| Molecule | specific binding to IgE antibodies from soybean-allergic patients |
| --- | --- |
| guanosine nucleotide diphosphate dissociation inhibitor 2 (protein, Glycine max) MDEEYDVIVLGTGLKECILSGLLSVDGLKVLHMDRNDYYGGESTSLNLIQLWKRFRGDDKPPPHLGASRDYNIDMNPKFIMANGNLVRVLIHTDVTKYLSFKAVDGSFVFNKGKVHKVPANDMEALKSPLMGLFEKRRARKFFIYVQNYNESDPKTHEGMDLTRVTTKELIAKYGLDDNTIDFIGHALALHSDDRYLAEPALDTVKRMKLYAESLARFQGGSPYIYPLYGLGELPQAFARLSAVYGGTYMLNKPECKVEFDEEGKVVGVTSEGETAKCKKVVCDPSYLPGKVRKVGRVARAIAIMSHPIPSTDDSHSVQIILPQKQLGRKSDMYLFCCSYTHNVAPKGKFIAFVSTEAETDQPAIELKPGIDLLGPVDEIFFDIYDRYEPVNEPTLDNCFVSTSYDATTHFESTVDDVLNMYTLITGKVIDLSVDLSAASAAEE | specific binding |
| V-type proton ATPase subunit B 2 (protein, Glycine max) MGVAQNIPDAEEGTLEIGMEYRTVSGVAGPLVILDKVKGPKFQEIVNIRLGDGTTRRGQVLEVDGEKAVVQVFEGTSGIDNKFTTVQFTGEVLKTPVSLDMLGRIFNGSGKPIDNGPPILPEAYLDISGSSINPSERTYPEEMIQTGISTIDVMNSIARGQKIPLFSAAGLPHNEIAAQICRQAGLVKRLEKSDNLLEGGGEEDNFAIVFAAMGVNMETAQFFKRDFEENGSMERVTLFLNLANDPTIERIITPRIALTTAEYLAYECGKHVLVILTDMSSYADALREVSAAREEVPGRRGYPGYMYTDLATIYERAGRIEGRKGSITQIPILTMPNDDITHPTPDLTGYITEGQIYIDRQLYNRQIYPPINVLPSLSRLMKSAIGEGMTRKDHSDVSNQLYANYAIGKDVQAMKAVVGEEALSSEDLLYLEFLEKFERKFVAQGAYDTRNIFQSLDLAWTLLRIFPRELLHRIPAKTLDQFYSRDASN | specific binding |
| succinyl-CoA ligase [ADP-forming] subunit beta, mitochondrial (protein, Glycine max) MVRGLLNKLVSRSLSVAGKWQHNQLRRLNIHEYQGAELMSKHGVNVPRGVAVSSVEEARKVIKDLFPNENELVVKSQILAGGRGLGTFKSGLKGGVHIVKTDQVEDIAGKMLGQILVTKQTGPQGKIVSKVYLCEKLSLVNEMYFAITLDRTSAGPIIIACSKGGTSIEDLAEKFPDMIIKVPVDVFEGITDEGAAKVVDGLALKVADRNKSIEQVKNLYKLFVDCDCTLLEINPIAETADNQLVAADAKLNFDDNAAYRQKEIFSLRDTTQEDPREVTAAKADLNYIGLDGEIGCMVNGAGLAMATMDIIKLHGGTPANFLDVGGNASENQVVEAFKILTADDKVKAILVNIFGGIMKCDVIASGIVNAAKEVALKVPVVVRLEGTNVDQGKRILKESGMALITAEDLDDAAQKAVKAAYK | specific binding |
| hypothetical protein GLYMA_10G028300 (protein) ETEVEEEDPELVTCKHQCQQPQQYTEGDKRVCLQRCDRYHRMKQEREKQIQEETREKKEEESREREEEQQEQHEEQDENPYIFEEDKDFETRVETEGGRIRVLKKFTEKSKLLQGIENFRLAILEARAHTFVSPRHFDSEVVFFNIKGRAVLGLVSESETEKITLEPGDMIHIPAGTPLYIVNRDENDKLFLAMLHIPVSVSTPGKFEEFFGPGGRDPESVLSAFSWNVLQAALQTPKGKLEKLFDQQNEGSIFAISREQVRALAPTKKSSWWPFGGESKPQFNIFSKRPTISNGYGRLTEVGPDDDEKSWLQRLNLMLTFTNITQRSMSTIHYNSHATKIALVIDGRGHLQISCPHMSSRSSHSKHDKSSPSYHRISSDLKPGMVFVVPPGHPFVTIASNKENLLMICFEVNARDNKKFTFAGKDNIVSSLDNVAKELAFNYPSEMVNGVFDRKESFFFPFELPREERGRRADA | specific binding |

Continued, values first:

| specific binding to IgE antibodies from soybean-allergic patients | Molecule |
| --- | --- |
| specific binding | polyadenylate-binding protein 8 isoform X3 (protein) MAQVLENPTIDAAASGANPSLTTISLYVGDLHHDVNDPQLYDLFNQVAQVVSVRICRDVATQQSLGYGYVNFSNAHDAAKAIDVLNFTPLNGKIIRIMYSIRDPSARKSGAANVFIKNLDKAIDHKALYDTFSAFGNILSCKVATDASGQSKGHGFVQFESEESAQNAIDKLNGMLINDKQVFVGPFLRKQDRESALSGTKFNNVFVKNLLDSMTEADLERIFGEYGAITSAVVMRDVDGKSKGFGFVNFANVDDAAKAVEALNGKNFDGKEWYVGKAQKKSERELELKGQHEQITKETVDKYHGTNLYIKNLDDSVGDEELMELFSEFGTITSCKVMRDPNGISRGSGFVSFSIAEGATRALGEMNGKMVAGKPLYVALAQRKEDRRARLQAQFSQSRPAAITPNVSPRMPLYPLGAPAIGQQFLYGQAAPATIPQHFVPGMRPGGAPNFYVPLVQQGQQGQRPGGHRGSGPMQQLQQPLPLMHQQMLPRGHVYRYPSGSNMQNIQLAGVPGGMVTYGIGQQMPTQALASALANATPEQQRTMLGEALYPLVDKLEHEAAAKVTGMLLEMDQPEVLHLIESPDALKAKVVEAMDVLKKVTQQQSNSPADQLASLSLNDNVES |
| specific binding | protein disulfide isomerase-like protein precursor (protein, Glycine max, spot also identified as protein disulfide-isomerase) MPKFFHSIFRGTMAGRVSTCFFFVFALSLLLPFQISAEESSEKEFVLTLDHSNFHDTVSKHDFIVVEFYAPWCGHCKKLAPEYEKAASILSSHDPPVVLAKIDANEEKNKDLASQYDVRGYPTIKILRNGGKNVQEYKGPREADGIVDYLKKQSGPASTEIKSADEATAFIGENKVAIVGVFPKFSGEEFDNFSALAEKLRSDYDFGHTLNAKHLPRGESSVSGPVVRLFKPFDELFVDFQDFNVEALEKFVEESSTPVVTVFNNDPSNHPFVAKFFNSPNAKAMLFINFTAEGAESFKSKYREAAEQHKQQGVSFLVGDVESSQGAFQYFGLKEEQVPLIIIQHNDGKKFFKPNLEADHIPTWLKAYKDGNVAPFVKSEPIPEANDEPVKVVVGNSLEDIVFKSGKNVLLEFYAPWCGHCKQLAPILDEVAISYQSDADVVIAKLDATANDIPSETFDVQGYPTVYFRSASGKLSQYEGGRTKEDIIEFIEKNRDKPAQQEQGQDKPAQQEQGQDEQEKGKDEL |
| specific binding | sucrose binding protein homolog S-64 (protein) ETEVEEDPELVTCKHQCQQQRQYTESDKRTCLQQCDSMKQEREKQVEEETREKEEEHQEQHEEEQDQNPYVFEEDKDFSTRVETEGGSIRVLKKFTEKSKLLQGNENFRLAILEARAHTFVSPRHFDSEVVLFNIKGRAVLGLVRESETEKITLEPGDMIHIPAGTPLYIVNRDENEKLLLAMLHIPVSTPGKFEEFFGPGGRDPESVLSAFSWNVLQAALQTPKGKLERLFNQQNEGSIFKISRERVRALAPTKKSSWWPFGGESKAQFNIFSKRPTFSNGYGRLTEVGPDDEKSWLQRLNLMLTFTNITQRSMSTIHYNSHATKIALVMDGRGHLQISCPHMSSRSDSKHDKSSPSYHRISADLKPGMVFVVPPGHPFVTIASNKENLLIICFEVNVRDNKKFTFAGKDNIVSSLDNVAKELAFNYPSEMVNGVFERKESLFFPFELPSEERGRRAVA |
